In paper PMC9500498 (Circulation research, 2021) one finds Kd, koff and kon data, which are given here for one molecule.

One may read the Kd as a measure of binding affinity in units of concentration. A word on the koff: it is the first-order rate constant of dissociation. By kon is commonly meant the rate constant with which the complex forms.

In the experiment the target is calmodulin (CaM), recombinant (UniProt P0DP23 1-149). The experiment in a line: SPR. On the technique in general: Surface plasmon resonance follows binding to a sensor surface in real time, without labels.

Ends that are not written are not given here. * marks the point of attachment. Biotin = O=C1N[C@H]2[C@H](CS[C@H]2CCCCC(=O)*)N1; Ahx = NCCCCCC(=O)O

For {Biotin-Ahx}-KKRKKAKKDYQPNYFLSIPI [biotin-ahx-AKAP18δ-N (79–98)], the Kd was determined as 4.7 ± 0.7 µM, the koff is 0.00053 s⁻¹ and the kon was determined as 130 M⁻¹ s⁻¹.
